Laboratory results taken from paper PMC9800341, “THOC5 complexes with DDX5, DDX17, and CDK12 to regulate R loop structures and transcription elongation rate”.

T1: GST-THOC6 WT (UniProt Q86W42 1-341)
T1 sequence: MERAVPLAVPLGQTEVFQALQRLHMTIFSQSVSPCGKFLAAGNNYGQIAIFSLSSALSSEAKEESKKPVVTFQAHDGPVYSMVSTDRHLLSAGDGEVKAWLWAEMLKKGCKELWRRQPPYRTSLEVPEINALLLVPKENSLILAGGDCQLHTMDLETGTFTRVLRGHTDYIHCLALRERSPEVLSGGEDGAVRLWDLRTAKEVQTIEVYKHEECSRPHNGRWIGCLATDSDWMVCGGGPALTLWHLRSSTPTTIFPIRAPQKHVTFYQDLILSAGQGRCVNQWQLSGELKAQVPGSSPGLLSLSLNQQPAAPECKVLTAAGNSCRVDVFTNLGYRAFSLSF

T2: THOC6-FLAG (UniProt Q86W42 1-341)
T2 sequence: T1 sequence

B1: C4D (C4-ssDNA + C4-ssRNA) (DNA:RNA)
DNA: CCCGGGAGGCGGAGGTTGCAGTGAACCAAGATCGCGCCATTGCACTCCAGCCTGGG
RNA: CCCAGGCUGGAGUGCAAUGGCGCGAUCUUGGUUCACUGCAACCUCCGCCUCCCGGG
B2: OSD (OS4D; OS-ssDNA + OS-ssRNA) (DNA:RNA)
DNA: CGCCCTCCCGCCCCCTCGGGGCCCCGCCCCTGGGCCTCTCAGGCCCCTCCCCTGCGCTCC
RNA: GGAGCGCAGGGGAGGGGCCUGAGAGGCCCAGGGGCGGGGCCCCGAGGGGGCGGGAGGGCG

What was measured:
[1] = target: T1, GST-THOC6 WT; test: streptavidin pull-down; EMSA: 20 mM Tris pH 7.5, 2 mM DTT, 12 mM MgCl2, 100 mM NaCl, 10% glycerol, 30 min RT; pull-downs: 4 C overnight or 37 C 2 h (Fig S5A: 4 h), buffer not given in; details: protein: recombinant; tags: GST (pGEX-4T1), FLAG; label: 5' biotin on DNA or RNA strand; blunt
[2] = target: T2, THOC6-FLAG; test: streptavidin pull-down; 4 C overnight or 37 C 2 h; EMSA: 20 mM Tris pH 7.5, 2 mM DTT, 12 mM MgCl2, 100 mM NaCl, 10% glycerol, 30 min RT; pull-downs: 4 C overnight or 37 C 2 h (Fig S5A: 4 h), buffer not given in; details: protein: recombinant; tags: C-terminal FLAG (DYK); label: 5' biotin on DNA or RNA strand; blunt
[3] = target: T2, THOC6-FLAG; test: streptavidin pull-down; 4 C overnight or 37 C; EMSA: 20 mM Tris pH 7.5, 2 mM DTT, 12 mM MgCl2, 100 mM NaCl, 10% glycerol, 30 min RT; pull-downs: 4 C overnight or 37 C 2 h (Fig S5A: 4 h), buffer not given in; details: protein: recombinant; tags: C-terminal FLAG (DYK); label: 5' biotin on DNA or RNA strand; blunt

| Binder | binding result [1] | binding result [2] | binding result [3] |
| --- | --- | --- | --- |
| B1 | binds | binds | – |
| B2 | – | – | binds |
